Laboratory results reported in patent CN117836322A (PASTEUR INSTITUT, dated 2024).
“And” between values parts separate entries of the source, which are not always exact repeats. Equal values may be shown once.

Assays:
[1] = target: SARS-CoV-2 Omicron BA.1 spike on virus (SARS-CoV-2); assay: cell-based or functional assay
[2] = target: SARS-CoV-2 Delta (δ, B.1.617.2) spike on virus (SARS-CoV-2); assay: cell-based or functional assay

B1: Cv2.1169 IgG1 (antibody, V domains shown)
VH: QVQLVQSGPEVKKPGTSVKVSCKASGFTFTTSAVQWVRQARGQRLEWIGWIVVGSGNTNYAQKFQERVTITRDMSTTTAYMELSSLRSEDTAVYYCAAPYCSGGTCLDGFDIWGQGTMVTVSS
VL: not shown
**Q.** Which “IC50 (S-融合测定)” value [1] does the source give for B1 here?
**A.** 0.253 µg/mL and 0.212 µg/mL

**Q.** What about the “IC50 (中和)” value [1] of the same binder?
**A.** ~0.25 µg/mL

**Q.** And the “IC50 (S-融合测定)” value [2]?
**A.** 0.00446 µg/mL

B2: Cv2.3194 IgG1 (antibody, V domains shown)
VH: EVQLVESGGGLIQPGGSLRLSCAASGITVTSNYMSWVRQAPGKGLEWVSVIYPGGSTFYADSVKGRFTISRDNSKNTLYLQMNSLRAEDTAVYYCARDLVVYGMDVWGQGTTVTVSS
VL: EIVLTQSPGTLSLSPGERATLSCRASQSVSSSYLAWYQQKPGQAPRLLIYGASSRATGIPGRFSGSGSGTDFTLTISRLEPEDFAIYYCQQGVTFGGGTKVEIKR
**Q.** How did the “IC50 (S-融合测定)” value [1] turn out when B2 was run?
**A.** 0.0242 µg/mL
